These binders were tested against SARS-CoV-2 S-RBD with Avi-tag and deca-His tag (residues 330-531) (SARS-CoV-2, UniProt P0DTC2, biotin on the Avi tag (BirA) where immobilised on streptavidin sensors or used in ELISA and FSEC).

Row | Binder | binding result
1 | SR44 (VHH) VHH: QVQLVESGGGLVQAGGSLRLSCAASGFPVGTAQMAWYRQAPGKEREWVAAITSYGEYTLYADSVKGRFTISRDNAKNTVYLQMNSLKPEDTAVYYCAVHVGFWYTGQGTQVTVS | binds
2 | SR47 (VHH) VHH: QVQLVESGGGLVQAGGSLRLSCAASGFPVKTETMHWYRQAPGKEREWVAAIYSYGTYTLYADSVKGRFTISRDNAKNTVYLQMNSLKPEDTAVYYCEVQVGEWYEGQGTQVTVS | binds
3 | SR60 (VHH) VHH: QVQLVESGGGLVQAGGSLRLSCAASGFPVEHAQMAWYRQAPGKEREWVAAIQSYGSTTYYADSVKGRFTISRDNAKNTVYLQMNSLKPEDTAVYYCAVHVGFWYAGQGTQVTVS | binds
4 | SR57 (VHH) VHH: QVQLVESGGGLVQAGGSLRLSCAASGFPVEQAEMAWYRQAPGKEREWVAAIVSYGHSTYYADSVKGRFTISRDNAKNTVYLQMNSLKPEDTAVYYCAVFVGFWYAGQGTQVTVS | binds
5 | SR59 (VHH) VHH: QVQLVESGGGLVQAGGSLRLSCAASGFPVKTSRMYWYRQAPGKEREWVAAIISYGSVTFYADSVKGRFTISRDNAKNTVYLQMNSLKPEDTAVYYCYVYVGAQYWGQGTQVTVS | binds
6 | SR49 (VHH) VHH: QVQLVESGGGLVQAGGSLRLSCAASGFPVFHAYMAWYRQAPGKEREWVAAIESDGSSTHYADSVKGRFTISRDNAKNTVYLQMNSLKPEDTSVYYCAVLVGFWYAGQGTQVTVS | binds
7 | SR45 (VHH) VHH: QVQLVESGGGLVQAGGSLRLSCAASGFPVDNATMAWYRQAPGKEREWVAAIHSIGGYTTYADSVKGRFTISRDNAKNTVYLQMNSLKPEDTAVYYCVGVGKHYYGQGTQVTVS | binds
8 | SR46 (VHH) VHH: QVQLVESGGGLVQAGGSLRLSCAASGFPVFTENMHWYRQAPGKEREWVAAIYSYGVWTLYADSVKGRFTISRDNAKNTVYLQMNSLKPEDTAVYYCVVQVGEWYEGQGTQVTVS | binds
9 | SR58 (VHH) VHH: QVQLVESGGGLVQAGGSLRLSCAASGFPVKQENMHWYRQAPGKEREWVAAIYSTGNFTLYADSVKGRFTISRDNAKNTVYLQMNSLKPEDTAVYYCAVQVGQWYEGQGTQVTVS | binds
10 | SR48 (VHH) VHH: QVQLVESGGGLVQAGGSLRLSCAASGFPVNQNNMHWYRQAPGKEREWVAAIYSSGDFTLYADSVKGRFTISRDNAKNTVYLQMNSLKPEDTAVYYCEVQVGFWYTGQGTQVTVS | binds
11 | SR53 (VHH) VHH: QVQLVESGGGLVQAGGSLRLSCAASGFPVYSQHMHWYRQAPGKEREWVAAIYSNGTYTLYADSVKGRFTISRDNAKNTVYLQMNSLKPEDTAVYYCEVNVGEWYEGQGTQVTVS | binds
12 | SR55 (VHH) VHH: QVQLVESGGGLVQAGGSLRLSCAASGFPVDTTNMHWYRQAPGKEREWVAAIYSSGGFTLYADSVKGRFTISRDNAKNTVYLQMNSLKPEDTAVYYCTVWVGDWYEGQGTQVTVS | binds
13 | SR42 (VHH) VHH: QVQLVESGGGLVQAGGSLRLSCAASGFPVQQREMTWYRQAPGKEREWVAAIMSKGVHTEYADSVKGRFTISRDNAKNTVYLQMNSLKPEDTAVYYCHVYVGASYFGQGTQVTVS | binds
14 | SR51 (VHH) VHH: QVQLVESGGGLVQAGGSLRLSCAASGFPVWESYMRWYRQAPGKEREWVAAIQSNGNNTWYADSVKGRFTISRDNAKNTVYLQMNSLKPEDTAVYYCVVYVGYEYHGQGTQVTVS | binds
15 | SR56 (VHH) VHH: QVQLVESGGGLVQAGGSLSLSCAASGFPVEHYGMYWYRQAPGKEREWVAAIRSDGQWTHYADSVKGRFTISRDNAKNTVYLQMNSLKPEDTAVYYCTVGVGSNYYGQGTQVTVS | binds
16 | SR50 (VHH) VHH: QVQLVESGGGLVQAGGSLRLNCAASGFPVAQAVMAWYRQALGKEREWVAAMHSTGTYTAYADSVKGRFTISRDNAKNTVYLQMNSLKPEDTAVYYCAVHVGFWYAGQGTQVTVS | binds
17 | SR36 (VHH) VHH: QVQLVESGGGLVQAGGSLRLSCAASGFPVYMEEMEWYRQAPGKEREWVAAIASYGSETYYADSVKGRFTISRDNAKNTVYLQMNSLKPEDTAVYYCYVYVGQSYIGQGTQVTVS | binds
18 | SR41 (VHH) VHH: QVQLVESGGGLVQAGGSLRLSCAASGFPVGSTEMEWYRQAPGKEREWVAAISSTGHYTHYADSVKGRFTISRDNAKNTVYLQMNSLKPEDTAVYYCYVYVGGSYLGQGTQVTVS | binds
19 | SR37 (VHH) VHH: QVQLVESGGGLVQAGGSLRLSCAASGFPVSTAEMTWYRQAPGKEREWVAAIESYGNSTEYADSVKGRFTISRDNAKNTVYLQMNSLKPEDTAVYYCYVYVGYSYIGQGTQVTVS | binds
20 | SR38 (VHH) VHH: QVQLVESGGGLVQAGGSLRLSCAASGFPVNQEEMEWYRQAPGKEREWVAAIKSWGTLTAYADSVKGRFTISRDNAKNTVYLQMNSLKPEDTAVYYCAVHVGQTYIGQGTQVTVS | binds
21 | SR40 (VHH) VHH: QVQLVESGGGLVQAGGSLRLSCAASGFPVDSQEMEWYRQAPGKEREWVAAISSNGKSTYYADSVKGRFTISRDNAKNTVYLQMNSLKPEDTAVYYCYVYVGLSYIGQGTQVTVS | binds
22 | SR39 (VHH) VHH: QVQLVESGGGLVQAGGSLRLSCAASGFPVDASEMEWYRQAPGKEREWVAAIESQGYETYYADSVKGRFTISRDNAKNTVYLQMNSLKPEDTAVYYCYVYVGSSYIGQGTQVTVS | binds
23 | SR52 (VHH) VHH: QVQLVESGGGLVQAGGSLRLSCAASGFPVNNMEMTWYRQAPGKEREWVAAIASDGSYTEYADSVKGRFTISRDNAKNTVYLQMNSLKPEDTAVYYCYVWVGKSYIGQGTQVTVS | binds
24 | SR43 (VHH) VHH: QVQLVESGGGLVQAGGSLRLSCAASGFPVKKHEMEWYRQAPGKEREWVAAIQSKGYTTYYADSVKGRFTISRDNAKNTVYLQMNSLKPEDTAVYYCYVYVGESYIGQGTQVTVS | binds
25 | SR54 (VHH) VHH: QVQLVESGGGLVQAGGSLRLSCAASGFPVSQARMHWYRQAPGKEREWVAAIGSSGDFTRYADSVKGRFTISRDNAKNTVYLQMNSLKPEDTAVYYCEVQVGQWYEGQGTQVTVS | binds
